We go through 1 molecule from US11427805B2, “Methods of producing human foregut endoderm cells expressing PDX1 from human definitive endoderm” (ViaCyte, Inc., priority 2005, dated 2022).

Test [1] deals with hESCs. Nature of the test: Antibody labeling (immunocytochemistry) of differentiating hESCs for SOX17 and AFP. It counts as cell-based, human. The text has this: However, AFP and SOX7 are not expressed in definitive endoderm cells at levels detectable by ICC, and thus, they can be employed as negative markers for bonifide definitive endoderm cells. It was shown that SOX17 antibody labels populations of cells that exist as discrete groupings of cells or are intermingled with AFP positive cells. […] Similarly, since parietal endoderm has been reported to express SOX17, antibody co-labeling with SOX17 together with the parietal markers SPARC and/or Thrombomodulin (TM) can be used to identify the SOX17^+ cells that are parietal endoderm. As shown in FIGS. 6A-C, Thrombomodulin and SOX17 co-labeled parietal endoderm cells were produced by random differentiation of hES cells.
With the SOX17 antibody and Q-PCR tools described above we have explored a number of procedures capable of efficiently programming hESCs to become SOX17^hi/AFP^lo/SPARC/TM^lo definitive endoderm cells. We applied a variety of differentiation protocols aimed at increasing the number and proliferative capacity of these cells as measured at the population level by Q-PCR for SOX17 gene expression and at the level of individual cells by antibody labeling of SOX17 protein.
To determine the effect of TGFβ factor treatment at the individual cell level, a time course of TGFβ factor addition was examined using SOX17 antibody labeling. […]

The test system of test [2] is hESCs. Nature of the test: Q-PCR of germ layer marker genes (MIXL1, GATA4, HNF3b, SOX7, SPARC, ZIC1, Brachyury) in differentiating hESCs. In kind it is cell-based, human. The source says: We routinely used Q-PCR to measure the gene expression of multiple markers of target and non-target cell types in order to provide a broad profile description of gene expression in cell samples. The markers relevant for the early phases of hESC differentiation (specifically ectoderm, mesoderm, definitive endoderm and extra-embryonic endoderm) and for which validated primer sets are available are provided below in Table 1. […] This is an important fact since the hESCs were often grown on mouse feeder layers. Most typically, triplicate samples were taken for each condition and independently analyzed in duplicate to assess the biological variability associated with each quantitative determination.
To generate PCR template, total RNA was isolated using RNeasy (Qiagen) and quantitated using RiboGreen (Molecular Probes). Reverse transcription from 350-500 ng of total RNA was carried out using the iScript reverse transcriptase kit (BioRad), which contains a mix of oligo-dT and random primers. Each 20 μL reaction was subsequently diluted up to 100 μL total volume and 3 μL was used in each 10 μL Q-PCR reaction containing 400 nM forward and reverse primers and 5 μL 2×SYBR Green master mix (Qiagen). Two step cycling parameters were used employing a 5 second denature at 85-94° C. (specifically selected according to the melting temp of the amplicon for each primer set) followed by a 45 second anneal/extend at 60° C. Fluorescence data was collected during the last 15 seconds of each extension phase. A three point, 10-fold dilution series was used to generate the standard curve for each run and cycle thresholds (Ct's) were converted to quantitative values based on this standard curve. The quantitated values for each sample were normalized to housekeeping gene performance and then average and standard deviations were calculated for triplicate samples. At the conclusion of PCR cycling, a melt curve analysis was performed to ascertain the specificity of the reaction. A single specific product was indicated by a single peak at the Tm appropriate for that PCR amplicon.
Definitive endoderm cells were predicted to express high levels of SOX17 mRNA and low levels of AFP and SOX7 (visceral endoderm), SPARC (parietal endoderm) and Brachyury (mesoderm). In addition, ZIC1 was used here to further rule out induction of early ectoderm. Finally, GATA4 and HNF3b were expressed in both definitive and extra-embryonic endoderm, and thus, correlate with SOX17 expression in definitive endoderm (Table 1).

B1: activin A (protein, UniProt P08476 311-426, looked up)
Inhibin beta A chain: GLECDGKVNICCKKQFFVSFKDIGWNDWIIAPSGYHANYCEGECPSHIAGTSGSSLSFHSTVINHYRMRGHSPFANLKSCCVPTKLRPMSMLYYDDGQNIIKKDIQNMIVEECGCS
modifications: Inhibin beta A chain
With B1, in test [1] (FIG. 22), the “dose dependence of SOX17+ cell number” value was “dose-dependent increase”. In addition, the “difference in SOX17 antibody-labeled cell number” value in test [1] (hESCs treated with activin A vs retinoic acid (FIG. 7B)) amounted to 10 fold. Besides, the “mesoderm differentiation (brachyury expression)” value in test [2] (100 ng/ml (FIG. 14B)) is “notable suppression”. In test [2] (activin A dose series (FIG. 14A)), the “effect on neural differentiation (ZIC1 expression)” value is listed as “not a dose-dependent effect”. Moreover, in test [2] (activin A dose series (FIGS. 12A-C)), the “expression of definitive endoderm markers MIXL1, GATA4 and HNF3b” value is listed as “dose-dependent increases”. For the same molecule, the “expression of primitive endoderm (SOX7) and parietal endoderm (SPARC) markers” value in test [2] (activin A dose series (FIGS. 13B-C)) is “remain either unchanged or exhibit suppression at some time points”.
